Test results published in patent US20150079112A1 (SAMSUNG ELECTRONICS, published 2015).

Assays:
Assay in all cases: ELISA, coated antibody 1000 nM, 250 ng FLAG-tagged mutant Ang2, anti-FLAG-HRP, OD450
[1] = biological target: T1, mutant Ang2 protein, P452 substituted with alanine, FLAG-tagged at its N-terminal (human, UniProt O15123 19-496, limits assumed)
T1 sequence: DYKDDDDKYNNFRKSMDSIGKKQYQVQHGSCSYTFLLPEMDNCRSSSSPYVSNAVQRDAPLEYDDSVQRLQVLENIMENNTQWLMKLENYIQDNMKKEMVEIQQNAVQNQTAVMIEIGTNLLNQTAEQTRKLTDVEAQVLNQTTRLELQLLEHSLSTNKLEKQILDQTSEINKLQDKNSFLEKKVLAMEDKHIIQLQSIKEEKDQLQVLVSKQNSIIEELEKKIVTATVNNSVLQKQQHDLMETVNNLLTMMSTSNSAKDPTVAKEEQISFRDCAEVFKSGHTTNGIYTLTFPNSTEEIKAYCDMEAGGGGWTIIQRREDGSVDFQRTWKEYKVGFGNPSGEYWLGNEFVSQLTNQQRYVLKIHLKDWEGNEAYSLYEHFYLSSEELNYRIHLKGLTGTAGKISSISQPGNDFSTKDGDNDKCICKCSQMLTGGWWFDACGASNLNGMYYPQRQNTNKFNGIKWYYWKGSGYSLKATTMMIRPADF
Method: (§1) Each well of a 96-well MaxiSorp™ flat-bottom plate (Nunc) was coated with 50 ul (microliter) of 1000 nM antibody. Then, the plate was washed five times with 0.05% (v/v) Tween-20-containing PBS (PBST) and blocked with 1% (v/v) BSA-containing PBS at a room temperature for 2 hours. 250 ng of each mutant Ang2 protein obtained by substituting S417, Q418, P419, N421, I434, D448, A449, P452, Y460, N467, K468, or F469 residue of Ang2 protein tagged with a FLAG sequence ([…], Sigma) at its N-terminal with alanine was added to each well of the plate, which was then allowed to react at a room temperature for 2 hours.
(§2) The plate was washed five times with 0.05% (v/v) Tween-20 containing PBS, reacted with an anti-FLAG antibody (SIGMA) conjugated with HRP which was diluted in 1% (v/v) BSA-containing PBS at a ratio of 1:5,000 (v/v) at a room temperature for 1 hour, and washed five times with 0.1% (v/v) Tween-20-containing PBS.
(§3) Finally, 50 ul of TMB substrates (Cell signaling) was added to each well of the plate to induce color development at a room temperature for 3 min. and the reaction was ceased by the addition of 50 ul of Stop solution (Cell signaling) and then, OD450 values were measured on a plate reader (Molecular Devices). By comparing binding affinities with mutated Ang2 to those of unmutated Ang2, each epitope of Ang2 antibodies was identified. The thus obtained measurement results of the binding affinities (%) with mutant Ang2 against the binding affinity with the native Ang2 are shown in the following Table 8.

[2] = biological target: T2, mutant Ang2 protein, N421 substituted with alanine, FLAG-tagged at its N-terminal (human, UniProt O15123 19-496, limits assumed)
T2 sequence: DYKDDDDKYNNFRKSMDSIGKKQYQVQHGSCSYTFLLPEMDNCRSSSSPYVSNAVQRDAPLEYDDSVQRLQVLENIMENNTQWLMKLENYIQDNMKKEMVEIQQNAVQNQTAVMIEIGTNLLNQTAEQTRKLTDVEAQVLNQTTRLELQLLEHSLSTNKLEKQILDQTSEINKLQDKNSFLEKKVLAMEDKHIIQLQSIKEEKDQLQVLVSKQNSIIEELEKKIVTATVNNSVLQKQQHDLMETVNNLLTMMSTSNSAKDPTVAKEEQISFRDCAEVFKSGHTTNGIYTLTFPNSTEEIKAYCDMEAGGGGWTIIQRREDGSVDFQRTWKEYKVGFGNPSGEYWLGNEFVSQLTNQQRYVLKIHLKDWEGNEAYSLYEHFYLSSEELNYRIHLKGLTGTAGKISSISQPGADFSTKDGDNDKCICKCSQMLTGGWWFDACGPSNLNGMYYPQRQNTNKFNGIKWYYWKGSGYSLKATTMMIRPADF
Method: as §1, §2, §3

[3] = biological target: T3, mutant Ang2 protein, N467 substituted with alanine, FLAG-tagged at its N-terminal (human, UniProt O15123 19-496, limits assumed)
T3 sequence: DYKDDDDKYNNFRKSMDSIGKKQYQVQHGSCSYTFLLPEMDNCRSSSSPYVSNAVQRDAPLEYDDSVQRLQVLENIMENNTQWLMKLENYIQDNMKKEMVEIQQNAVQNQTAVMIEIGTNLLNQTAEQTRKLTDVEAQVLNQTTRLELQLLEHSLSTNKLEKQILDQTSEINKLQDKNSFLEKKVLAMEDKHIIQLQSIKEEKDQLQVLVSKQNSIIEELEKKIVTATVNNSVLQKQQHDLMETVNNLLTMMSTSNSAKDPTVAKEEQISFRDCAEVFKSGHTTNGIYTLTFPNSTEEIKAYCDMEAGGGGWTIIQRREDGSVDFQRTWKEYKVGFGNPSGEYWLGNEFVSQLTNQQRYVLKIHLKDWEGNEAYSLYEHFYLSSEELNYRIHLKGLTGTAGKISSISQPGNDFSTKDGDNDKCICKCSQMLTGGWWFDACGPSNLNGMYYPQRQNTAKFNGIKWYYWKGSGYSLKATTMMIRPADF
Method: as §1, §2, §3

[4] = biological target: T4, mutant Ang2 protein, K468 substituted with alanine, FLAG-tagged at its N-terminal (human, UniProt O15123 19-496, limits assumed)
T4 sequence: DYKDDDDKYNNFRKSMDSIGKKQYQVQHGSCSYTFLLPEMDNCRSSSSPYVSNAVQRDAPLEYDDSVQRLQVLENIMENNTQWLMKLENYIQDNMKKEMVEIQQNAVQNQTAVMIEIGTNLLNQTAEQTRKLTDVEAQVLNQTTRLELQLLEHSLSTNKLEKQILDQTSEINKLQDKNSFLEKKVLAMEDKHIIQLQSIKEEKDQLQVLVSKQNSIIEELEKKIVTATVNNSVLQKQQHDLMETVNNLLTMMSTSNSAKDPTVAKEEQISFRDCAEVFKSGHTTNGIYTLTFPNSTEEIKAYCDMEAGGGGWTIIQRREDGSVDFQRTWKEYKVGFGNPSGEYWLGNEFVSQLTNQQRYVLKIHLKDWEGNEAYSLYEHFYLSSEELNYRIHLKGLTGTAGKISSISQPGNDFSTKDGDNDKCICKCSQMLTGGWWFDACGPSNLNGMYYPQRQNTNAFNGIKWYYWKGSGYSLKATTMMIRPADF
Method: as §1, §2, §3

B1: SAIT-ANG2-AB-m10D6 (antibody, V domains shown)
VH: DVQLQESGPGLVKPSQSLSLTCTVTGYSITSDYAWNWIRQFPGNKLEWMGYINYSGNTDYNPSLKSRSSITRDTSKNQFFLQLNSVTTGDTATYYCARGNFEGAMDYWGQGTSVTVSS
VL: SIVMTQTPKFLLVSAGDRVTITCKASQSVSNDVAWYQQKPGQSPKLLIYYASNRYPGVPDRFTGSGYGTDFTFTISTVQAEDLAVYFCQQDYSSPWTFGGGTKLEIK
notes: also called antibody 10D6; anti-Ang2 antibody (10D6)
binding affinity (%) with mutant Ang2 against the binding affinity with the native Ang2 [1]: 102% | binding affinity (%) with mutant Ang2 against the binding affinity with the native Ang2 [2]: 109% | binding affinity (%) with mutant Ang2 against the binding affinity with the native Ang2 [3]: 107% | binding affinity (%) with mutant Ang2 against the binding affinity with the native Ang2 [4]: 110%
